Data on one molecule can be found in PMC11240955, “Stability Engineering of Recombinant Secretory IgA” (International Journal of Molecular Sciences, 2024).

The test concerns the target T1, receptor-binding domain (RBD) of the SARS-CoV-2 spike, R319-F541, with a C-terminal 6xHis-tag (SARS-CoV-2, UniProt P0DTC2).
T1 construct: also called RBD-His; not shown: His6, C-terminal, kept
Kind of test: ELISA. The settings on record: both partners purified. On the technique in general: An ELISA detects its analyte on a solid surface through an enzyme-linked reagent.

B1: COVA2-15 monomeric IgA2m(1)_D133C (antibody, V domains shown)
VH: QVQLLESGGGLVQPGGSLRLSCAASGFTFSSYAMSWVRQAPGKGLEWASAISGSGGSTYYADSVEGRFTISRDNSKNTLYLQMNSLRAEDTAVYYCAKDTGYCGDDCYIKLIRGGPDYWGQGTLVTVSS
VL: DIVMTQSPLSLPVTLGQPASISCRSSQSLVYSDGNTFLNWFQQRPGQSPRRLIYQVSNRDSGVPDRFSGSGSGTDFTLKISRVEAEDVGVYYCMQGTHWPRTFGQGTKLEIK
notes: no single major 160 kDa peak in SEC; also called COVA2-15 mIgA2m(1)_D133C; mIgA2m(1)_D133C; copies: 2 + 2
As to B1, the binding result is listed as “binds”.
